The numbers were not newly measured in PMC4257090, which cites them from elsewhere.

Where two headings read alike, the source gives them in different places.

Data set [1] has as its target SecA (membrane-bound) (Escherichia coli) (UniProt P10408).
In data set [2] the target is SecA (soluble) (Escherichia coli) (UniProt P10408).
The target in data set [3] is SecA (membrane-bound) (Escherichia coli) (UniProt P10408). The source holds these as a separate data set.

For the substance SecB (from UniProt P0AG86), the Kd – broadly, the equilibrium constant for the complex coming apart – was 10 nM in data set [1], 1500 nM in data set [2] and 30 nM in data set [3].
